Assay results reported in patent EP4611795A1.

Columns and labels:
[1] = molecular target: human IgM (purified human IgM, MilliporeSigma; IgM in human sera) (human); assay: cell-based or functional assay
[2] = molecular target: human IgG (purified human IgG; IgG in human sera) (human); assay: cell-based or functional assay

Chain of human IgM (purified human IgM, MilliporeSigma; IgM in human sera) (human) (heavy, as listed by the source): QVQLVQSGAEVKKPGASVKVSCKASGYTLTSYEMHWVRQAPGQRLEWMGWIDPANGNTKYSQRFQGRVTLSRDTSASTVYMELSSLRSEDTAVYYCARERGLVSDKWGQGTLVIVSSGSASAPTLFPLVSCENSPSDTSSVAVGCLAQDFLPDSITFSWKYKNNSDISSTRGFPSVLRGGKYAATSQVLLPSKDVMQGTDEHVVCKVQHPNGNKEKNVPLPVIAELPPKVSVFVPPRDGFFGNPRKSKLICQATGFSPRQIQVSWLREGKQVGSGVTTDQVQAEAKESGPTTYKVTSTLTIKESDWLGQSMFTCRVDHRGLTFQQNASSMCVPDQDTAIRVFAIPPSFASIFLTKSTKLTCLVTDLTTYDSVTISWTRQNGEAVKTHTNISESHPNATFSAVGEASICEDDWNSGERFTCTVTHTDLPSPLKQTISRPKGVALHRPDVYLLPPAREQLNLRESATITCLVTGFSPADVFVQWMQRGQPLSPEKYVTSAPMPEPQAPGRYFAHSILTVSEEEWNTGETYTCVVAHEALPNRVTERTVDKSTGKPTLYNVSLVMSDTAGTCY

IceMG (recombinant His-tagged fusion protein of IceM and IdeZ proteolytic domains with the rigid linker) (enzyme)
EC50 of IceMG enzymatic activity on IgM in human sera [1]: 0.07 nM | EC50 of IceMG enzymatic activity on IgG in human sera [2]: 4.7 nM
